The assay addresses MSH2-MSH3 (purified heterodimer) (human, UniProt P43246 1-934; P20585 1-1137). The assay is described as follows: native gel or EMSA.

Chain of MSH2-MSH3 (purified heterodimer) (P43246 whole entry, chain 1 of 2): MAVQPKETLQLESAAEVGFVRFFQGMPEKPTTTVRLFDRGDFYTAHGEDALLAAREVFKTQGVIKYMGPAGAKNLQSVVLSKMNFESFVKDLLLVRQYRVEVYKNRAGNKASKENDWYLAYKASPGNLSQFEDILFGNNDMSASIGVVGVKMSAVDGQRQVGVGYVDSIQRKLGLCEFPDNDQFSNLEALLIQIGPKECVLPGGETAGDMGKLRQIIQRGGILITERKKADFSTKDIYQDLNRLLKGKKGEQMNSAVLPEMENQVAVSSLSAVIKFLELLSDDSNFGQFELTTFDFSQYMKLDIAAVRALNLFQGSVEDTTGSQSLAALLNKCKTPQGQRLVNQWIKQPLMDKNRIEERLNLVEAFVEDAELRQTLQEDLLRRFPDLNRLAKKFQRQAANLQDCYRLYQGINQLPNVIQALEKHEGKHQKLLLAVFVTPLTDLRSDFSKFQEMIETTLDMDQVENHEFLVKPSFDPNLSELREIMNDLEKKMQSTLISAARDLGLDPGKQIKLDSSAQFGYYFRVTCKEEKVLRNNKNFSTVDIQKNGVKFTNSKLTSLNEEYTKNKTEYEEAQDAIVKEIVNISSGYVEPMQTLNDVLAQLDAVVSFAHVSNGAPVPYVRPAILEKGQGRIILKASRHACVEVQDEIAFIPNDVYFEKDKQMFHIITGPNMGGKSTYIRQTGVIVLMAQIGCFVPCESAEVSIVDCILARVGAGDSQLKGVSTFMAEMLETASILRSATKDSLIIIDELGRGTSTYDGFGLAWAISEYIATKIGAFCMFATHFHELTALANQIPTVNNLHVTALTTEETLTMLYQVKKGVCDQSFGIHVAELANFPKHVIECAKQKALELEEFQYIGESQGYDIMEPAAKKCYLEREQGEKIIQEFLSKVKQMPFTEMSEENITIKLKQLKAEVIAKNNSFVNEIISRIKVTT
Chain of MSH2-MSH3 (purified heterodimer) (P20585 whole entry, chain 2 of 2): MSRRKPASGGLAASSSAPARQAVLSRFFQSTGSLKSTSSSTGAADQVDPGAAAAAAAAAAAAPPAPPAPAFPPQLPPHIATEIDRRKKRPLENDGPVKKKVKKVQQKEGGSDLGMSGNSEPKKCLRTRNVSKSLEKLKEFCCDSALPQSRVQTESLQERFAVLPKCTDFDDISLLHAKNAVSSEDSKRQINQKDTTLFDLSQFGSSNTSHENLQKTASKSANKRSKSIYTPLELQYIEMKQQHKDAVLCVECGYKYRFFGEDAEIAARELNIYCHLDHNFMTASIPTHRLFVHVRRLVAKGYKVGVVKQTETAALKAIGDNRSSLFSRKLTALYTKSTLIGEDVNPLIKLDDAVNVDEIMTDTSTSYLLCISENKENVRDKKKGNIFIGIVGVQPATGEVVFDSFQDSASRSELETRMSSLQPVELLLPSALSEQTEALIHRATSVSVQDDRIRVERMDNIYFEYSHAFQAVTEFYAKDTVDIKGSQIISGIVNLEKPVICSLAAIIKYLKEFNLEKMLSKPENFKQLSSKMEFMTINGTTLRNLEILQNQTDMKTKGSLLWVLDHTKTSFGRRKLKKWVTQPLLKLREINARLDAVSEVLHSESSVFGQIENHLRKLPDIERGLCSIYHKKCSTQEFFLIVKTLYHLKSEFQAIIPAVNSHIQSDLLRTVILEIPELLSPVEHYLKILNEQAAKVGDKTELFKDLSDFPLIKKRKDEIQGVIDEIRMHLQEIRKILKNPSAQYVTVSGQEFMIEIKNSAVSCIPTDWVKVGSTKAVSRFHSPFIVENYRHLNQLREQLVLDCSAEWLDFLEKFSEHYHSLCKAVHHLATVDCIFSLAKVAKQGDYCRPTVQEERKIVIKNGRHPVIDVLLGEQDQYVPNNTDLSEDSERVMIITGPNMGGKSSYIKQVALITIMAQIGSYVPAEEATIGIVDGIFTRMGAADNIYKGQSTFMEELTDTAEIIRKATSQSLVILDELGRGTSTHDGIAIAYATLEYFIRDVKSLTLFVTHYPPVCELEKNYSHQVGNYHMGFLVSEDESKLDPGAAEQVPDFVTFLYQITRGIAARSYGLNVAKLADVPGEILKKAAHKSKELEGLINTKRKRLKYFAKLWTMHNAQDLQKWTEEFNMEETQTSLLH

B1: SMARCAD1 (purified) (enzyme, human, UniProt Q9H4L7 1-1026, looked up)
chain: MNLFNLDRFRFEKRNKIEEAPEATPQPSQPGPSSPISLSAEEENAEGEVSRANTPDSDITEKTEDSSVPETPDNERKASISYFKNQRGIQYIDLSSDSEDVVSPNCSNTVQEKTFNKDTVIIVSEPSEDEESQGLPTMARRNDDISELEDLSELEDLKDAKLQTLKELFPQRSDNDLLKLIESTSTMDGAIAAALLMFGDAGGGPRKRKLSSSSEPYEEDEFNDDQSIKKTRLDHGEESNESAESSSNWEKQESIVLKLQKEFPNFDKQELREVLKEHEWMYTEALESLKVFAEDQDMQYVSQSEVPNGKEVSSRSQNYPKNATKTKLKQKFSMKAQNGFNKKRKKNVFNPKRVVEDSEYDSGSDVGSSLDEDYSSGEEVMEDGYKGKILHFLQDASIGELTLIPQCSQKKAQKITELRPFNSWEALFTKMSKTNGLSEDLIWHCKTLIQERDVVIRLMNKCEDISNKLTKQVTMLTGNGGGWNIEQPSILNQSLSLKPYQKVGLNWLALVHKHGLNGILADEMGLGKTIQAIAFLAYLYQEGNNGPHLIVVPASTIDNWLREVNLWCPTLKVLCYYGSQEERKQIRFNIHSRYEDYNVIVTTYNCAISSSDDRSLFRRLKLNYAIFDEGHMLKNMGSIRYQHLMTINANNRLLLTGTPVQNNLLELMSLLNFVMPHMFSSSTSEIRRMFSSKTKSADEQSIYEKERIAHAKQIIKPFILRRVKEEVLKQLPPKKDRIELCAMSEKQEQLYLGLFNRLKKSINNLEKNTEMCNVMMQLRKMANHPLLHRQYYTAEKLKEMSQLMLKEPTHCEANPDLIFEDMEVMTDFELHVLCKQYRHINNFQLDMDLILDSGKFRVLGCILSELKQKGDRVVLFSQFTMMLDILEVLLKHHQHRYLRLDGKTQISERIHLIDEFNTDMDIFVFLLSTKAGGLGINLTSANVVILHDIDCNPYNDKQAEDRCHRVGQTKEVLVIKLISQGTIEESMLKINQQKLKLEQDMTTVDEGDEGSMPADIATLLKTSMGL
For the molecule B1, the binding result is on record as “binds”.

Values taken from article doi:10.1101/2021.04.23.441074 (bioRxiv, 2021).
